Reference: the nanobody polyreactivity screen of Harvey et al. (2022)

Assay: yeast display, Sf9 membrane polyspecificity reagent, FACS + sequencing; frameworks hold sequencing errors
Summary of the method: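 Synthetic nanobody libraries on Saccharomyces cerevisiae BJ5465 were galactose-induced for 36–48 hours, stained 1 hour at 4 °C with 10% biotinylated, detergent-solubilized Sf9 membrane reagent and enriched on streptavidin microbeads. FACS then separated cells into low and high (top ~1%) gates by anti-HA (expression) and streptavidin (reagent binding) fluorescence. Genes were colony-PCR amplified, MiSeq 2 × 250 sequenced and CDR-length filtered. A clone's polyreactivity label is that of its gate of origin.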

Sequence | polyreactivity (PSR sort gate)
QVQLVESGGGLVQAGGSLRLSCAASGRTFWYYAMGWYRQAPGKERELVASISASGGSTFYADSVKGRFSISRDHAKNTVYLQMNSLKPEDTAVYYCAAKNAVWRRYEYWGQGTQVTVSS | high polyreactivity
QVQLVESGGGLVQAGGSLRLSCAASGSIFESYAMGWYRQAPGKERELVAAITKRGGSTYYADSVKGRFTISRDNAKYTVYLQMNSLKPEDTAVYYCNARWPGIGPIYDYCGQGTQVTVSS | low polyreactivity
QVQLQESRGGLVQAGGSLRLSCAATGTIFTDRIMGWYLQAPGKERELVAGISPGTSTNYADSVKGRFTISRDNEKNTVYLQMNSLKPEDTAVYYCAADWSTGNTLPYWGQGSQVTVSS | high polyreactivity
QVQLVESGGGLVQAGGSLRLSCAASGSIFTNNAMGWYRQAPRKERELVAAISWSGGSTYYADSVKGRFTISRDNAKITVYLQMISLKPEDTAVSYCAARYLYYGGRPGYDSWGQGTQVTVSS | high polyreactivity
QVQLVESGGGLLQAGGSLRLSCAASGSTFKFNAMGWYRQAPRKERELVAAISNRGGTTYYADSVKGRFTISRDNAKNTVYFHMNSLKPEDTAVYYCAAGRVQSYYYWGQGTQVTVSS | high polyreactivity
QVQIVESGGGLVQAGGSLRLSCAASGRILEGYAMGWYRQAPGKERELVAAISFSTTTTYYADSVKGRFTISRDNAKNTVYLQMNSLKPEDTAVYYCAADSQQSDYDYWGQGTQVTVSS | high polyreactivity
QVQLVESGGGLVQAGGSLRLSCATTGSTFQVYTMGWNRQAPGKEREFVASISWSGSSTYYADSVKGRFTISRDNAKNTVYLQMNSLKPEDTAVYYCAARARIKYLADPGYYWGQGTQVTVSS | high polyreactivity
QVQLVESGGGLVQAGGSLRLSCAASGRTFYRYAMGWYRQAPGKERELVAAISTRGGTTYYADSVKGRFTISRDNAKNTVYLQMNSLKPEDTAVYYCAADSVYAEDDSWGQGTQVTVSS | low polyreactivity
QVQLVESGGGLVQAGGSLRLSCAASGSIFVGNVMGWYRQAPGKERELVAAIRFSGGNTYYADSVKGRFTISRDNAKNTVYLQMNSLKPEDTAVYYCAARYGQGSYPTKYYYWGQGTQVTVSS | high polyreactivity
QVQLVESGGGLVQSGGSLRLSCAASGFIFGGYAMGWYRQAPGTERELVASITWSGGRTFYADSVKGRFTISRDNAKNTVYLQMNSLKPEDTEVYYCAAGIYFTPYYYYPPNPFDYWGQGTQVTVSS | low polyreactivity
QVQLVESGGGLGQAGGSLRLSCAASGSTFYRFTRGWYRQAPGKERELVASIRWTGGRTNYADSVKGRFTISRDNAKNTVYLQMNSLKPEDTAVYYCAAYLKYPYGASYGSWGQGTQVTVSS | high polyreactivity
QVQLVESGGGLVQAGGSLRLSCAASGLTFLNNAMGWYRQAPGKERELVAAISDGGSTNYADSVKGRFTISRDNAKNTVYLQMNSLKPEDTAVYYCAARVRGDYGHKYYQFDYWGQGTQVTVSS | low polyreactivity
QVQLLESGGGLVQAGGSLRLSCAASGFTFSRYAMGWYRQAPGKERELVAAITSSGGSTYYADSVKGRFTISRDNAKNTVYLQMLSLKPEDSAVYYCAAGKYTASNGYGYWGQGTQVTVSS | high polyreactivity
QVQLVESGGGLVQAGGSLRLSCAASGFIFGPYAMGWYRQAPGKERELVAAISRRGGSTYYADSVKGRFTISRDNAKNTVYLHMNSLKPEDTAVYYCATAGWGEAEGGYWGQGTQVTVSS | high polyreactivity
QVQLVESGGGLVQAGGSLRLSCAASGFIFGKNDMGWYRQAPGKERELVAAITIGGSTNYADSVKGRFTISRDNAKNTVYLQMNSLTPEDTAVYYCGADATSLYNYWGLGTQVTVSS | low polyreactivity
QVQLVESGGGLVQAGGSLRLSCAASGFTFKKNAMGWYRPAPGKERELVAAISRSGGITYYADSVKGRFTISRDNAKNTVYLQMNSLKPEDTAVSYCATQTYRTPAYPAYGYWGQGTQVTVSS | high polyreactivity
QVQLGESGGGLVQAGVSLRLSCAASGNTFYWNAMGWYRQAPGKERELVAAISTTGVSTYYADSVKGRFTISRDNAKNTVYLQMNSLKPEDTAVYYCAVDPPYSNPITINEDYWGQGTQVTVSS | low polyreactivity
QVHLVESGGGLVQAGGSIRLSCAASGRTLDPYTMGWYRQAPGKERELVAAITSSGGRTTYADSVKGRFTISRDNAKITVYLQMNSLKPEDTAVYYCAKKFRPVYRSQYLRYSWGQGTQVTVSS | low polyreactivity
QVQLVESGGGLVQAGGSLRLSCAASGSILWEYAMGWYRQAHGKERELVATISSGGCSTNYADSVKGRFTISRDNAKHNFYLPMKSLKPEDTAVYYCNALTSYLVTYEFDSWGIGTQVTVSS | low polyreactivity
QVQLVESGGGLVQAGGSLRLSCAASGRIYSVYGLGWYRQAPGKDRELVAAISSSAGSTNYADSVKGRFTISRDNAKNTVYLQMNSLKPEDTAVYYCAAYYRRVVYYPTAYYIRKYDYWGQGTQVTVSS | high polyreactivity
QVQLVESGVGLVQARGSLRLSCAASGSIFRRNAMGWYRQAHGKERELVAAISASGGRTYADSVKGRFTISRDNSKNTVYFQMKSLNPEDKAVYYCAARCYCSSRFDYWGLGTQVTVSS | high polyreactivity
QDQLVESGGGLVQAGGSLRLSCAASGSIFRRNSIGWYRQAPGKERELVAAIRWSSGSTYYADSVKGRFTISRDNAKNTVYLQMNSLKPEDTAVYYCAAAKRAYSYVLHAFYYWGQGTQVTVSS | high polyreactivity

Sequence | polyreactivity (PSR sort gate)
QVQLVESGGGLVQAGGSLRLSCAASGSTFSVYAMGWYRQAPGKERELVATISWGGGITYYADSVKGRFTISRDNAKNTVYLQMNSLKPEDTAVYYCAKELYSWLPGYRCEGTMDYWGQGTQVTVSS | high polyreactivity
QVQLVESGGGLVQAGGSLRLSCAASGSIFSGYAMGWYRQAPGKESELVAAISGSGGSTFYADSVKGRFTISRDNAKNTVYLQMISLKPEDTAVYYCAARRIAPFGRYDYWGQGTQVTVSS | low polyreactivity
QVQLVESGGGLVQAGGSLRLSCAASGSTFHYAMGWYRPAPGKERELVAAITYGGGRTFYADSVKGRFTISRDNAKNTVYLQMNSLKPEDTAVYYCAKVVYYYGRGWTDYRSTMDSWGQGTQVTVSS | low polyreactivity
QVQLVESGRGLVQAGGSLRLICAASGLTFHRYAMGWYRQAPGKERELVAALTWRGVSTYYADSVKGRFTISRDNAKNTVYLQMNSLKPEDTAVYYCAADDYFYDPYEYWGQGTIVTVSS | high polyreactivity
QVQLVESGGGLVQAGGSLRLSSAASGSTFYYNSMGWYRQAPGKETELVAGITRGGSTNYADSVKGRFTISRDNAKNTVYLQMNSLKPEDSAVYYCAKRTYFRGSSGYYYWGQGTQVTVSS | high polyreactivity
QVQLVESGGGLVQAGGSLRLSCAASGSIFRSYAMGWYRQAPGKERELVAAISWDGGTTYYADSVKGRFTISRDNAKNTVYLQMNSLKPEDTAVYYCAADASLLGLFQGYDYRGQGTQVTVSS | low polyreactivity
QVQLVESGAGLVQAGGSLRLSCAASGIIFSDNAMGWYRQAPGKEMELVAAIDWSGGSTYYADSVKGRFTISRDNAKNTVYLHMNSLKPEDTAVDYCAAEYRDYVPVNVTGDYWGQGTQVTVSS | low polyreactivity
QVQLVESGGGLVQAGGSLRLSCAASGSIFYNYAMGWYRQAPGKERQLVATITRSDGSTYYADSVKGRFTISRDNAKNTVYLQMNSLKPEDTAVYYCNADSLWDSAFGYDYWGQGTQVTVSS | low polyreactivity
QVQLVESGGGLVQAGGSLRLSCAASGSYLRYYAMGWYRQAPGKERELVAAISRSGTKTYYADSVKGRFTISRDNAKKTVYLQMNSLKPEDTAVYYCAARGYYRDYDSWGQGTQVTGSS | high polyreactivity
QVQLVESGGRLVQAGGSLRLSCAASGRTFARNAMGWYRQAPGKERELVAAISWSGGSTYYADSVKGRFTISRDNAKNTVYLQMNSLKPEDTAVYYCAARICYYNYWGQGTQVTVSS | high polyreactivity
QVQLVESGGGLVQAGGSLRLSCAASGFTFYSNAMGWSRQAPGKERELVATIRYRGGSTYADSVKGRFTISRDNAKNTVYLQMNSLKPEDTAVYYCAARKYRSFRQRTGDYWGQGTQVTVSS | high polyreactivity
QVQLVESGGGLVQAGGSLRLSGAASGSIFNRNAMGWYRQAPGKESELVARISWTAGSTYYADSEKARFTISRDYAKNTVYLQMNSLKPEDTAVYYCNDVKGYYDLYDKFDYWGQGTQVTVSS | low polyreactivity
QVQLVESGGGLVQAGGSLRLSCAASGSTFRDYAMGWYRQAPGTERELVAAITSGGSTNYADSVKGRFTISRDNAKNSVYLQMISLKPEDTAVYYCNARYAGWYTPWGRQSVYSDDYWGQGTQVTVSS | low polyreactivity
QVQLVESGGGLVQAGGSLRLSCAASGRIFRYYAMGWYRQAPGKERELVAAITWRGSSTYYADSVKGRFTISRDNAKNTVYLQMNSLKPEDTAVYYCNKLRSPHGYIRPGYDYWGQGTQVTVSS | high polyreactivity
QVQLVESGGGLVQAGGSLRLSCAASGFIFAGTAMGWYRQAPGKEWELVAAITRSGTNTYYADSVKGRFTISRDHAKNTVFLQMNSLKPEDTAVYYCNATVRYRYPYGYWGQGTQVTVSS | high polyreactivity
QVQLVESGGGLVQAGGSLRLSCAASGSIFYYNAMGWYRQAPGTERELVAAITSSGGSTYADSVKGRFTISRDNAKNTVYLQMNSLKPEDTAVYYCATVAHGLWSGSGYIYAYDYWGQGTQVTVSS | low polyreactivity
QVQLVESGGGLVQAGGSLRLSCAASGSTFYTNAMGWYRQAPGKEREFVAAISWSGSSTYADSVKGRFTISRDNAKNTVYLQMNSLKPEDTAVYYCAADWFKLRTDYYWGQGTQVTVSS | low polyreactivity
QVRLVESGGCLVQAGGSLRLSCAASGSTFRRYAMGWYRQAPGKERELVAAITVGGGSTYYADSVKGRFTISRDNAKNTVYLQMNSLKPEDTAVYDCSVSRYPYFRYDYWGQGTQVTVSS | high polyreactivity
QVQLVESWGGLVQAGGSLRLSCAASGITFSNYAMGWYRQAPGKERELVAAISKRGGSTYYADSVKGRFTISRDTAKYTVYLQMNSLKPEDTAVYYCAAAGVRVYVRSVLDYWGQGTQVTVSS | high polyreactivity
QVQLVESGGGLVQAGGSLRLSCAASGRIFWRYAMGWYRQAPGKERELVAAITGRTGSTNYADSVKGRFTISRDNANNTVYLQMNSLKREDTAVYYCAAAHHRWTGLFPSGYEFDYWGQGTQVTVSS | low polyreactivity
QVQLVESGGGLVQAGGSLRLSCAASGFTFNANAMGWYRQAPGKERELVAVITRSGGRTYYADSVKGRFTISRDNAKNTVYLQMNSLKPEDTEVYYCAKECPSRVYQGTDSASDYWGQGTQVTVSS | high polyreactivity
